Assays:
[1] = target: T1, recombinant human IL13Rα1hFc chimera (human, UniProt P78552 27-343, limits assumed); test: plate-bound ELISA on IL13Rα1hFc
T1 construct: Bought from R&D Systems; also called rhIL13Rα1; hrIL13Rα1; not shown: human Fc (hFc) of the purchased chimera
T1 sequence (looked up): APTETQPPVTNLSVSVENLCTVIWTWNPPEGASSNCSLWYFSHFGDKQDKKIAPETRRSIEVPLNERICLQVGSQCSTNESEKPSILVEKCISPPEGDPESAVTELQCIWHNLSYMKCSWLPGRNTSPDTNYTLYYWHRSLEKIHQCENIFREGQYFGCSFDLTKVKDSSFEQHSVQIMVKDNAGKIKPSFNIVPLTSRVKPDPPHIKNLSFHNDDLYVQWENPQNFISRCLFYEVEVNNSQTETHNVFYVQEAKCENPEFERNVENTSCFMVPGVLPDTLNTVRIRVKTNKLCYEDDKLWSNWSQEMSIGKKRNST

[2] = target: T2, recombinant mouse IL13Rα2hFc chimera (mouse, UniProt O88786 22-334, limits assumed); test: plate-bound ELISA on mouse rIL13Rα2hFc
T2 construct: Bought from R&D Systems; also called mouse rIL13Rα2; mouse recombinant IL13Rα2; not shown: human Fc (hFc) of the purchased chimera
T2 sequence (looked up): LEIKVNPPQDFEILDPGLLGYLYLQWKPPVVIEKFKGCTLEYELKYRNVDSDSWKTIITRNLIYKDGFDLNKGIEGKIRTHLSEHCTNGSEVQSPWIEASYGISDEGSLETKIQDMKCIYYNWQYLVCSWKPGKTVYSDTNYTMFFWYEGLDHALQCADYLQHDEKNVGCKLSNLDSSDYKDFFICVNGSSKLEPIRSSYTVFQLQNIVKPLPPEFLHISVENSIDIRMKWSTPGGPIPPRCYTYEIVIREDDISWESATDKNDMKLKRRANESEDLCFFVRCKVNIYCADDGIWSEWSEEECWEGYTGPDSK

CD28.OX40.z = target: T3, CD28.OX40.z; test: flow cytometry of transduced T cells stained with IL13Rα2Fc and secondary antibody, axis labelled CAR
T3 construct: also called M47 IL13Ra2 - SH - TM - CD28 - OX40 - ζ-chain CAR on T cells

*41BB.z = target: T4, *41BB.z; test: as above
T4 construct: also called M47 IL13Ra2 - SH - TM* (CD8a) - 41BB - ζ-chain CAR on T cells

B1: IL13Rα2 (clone 47) mAb (antibody, V domains shown)
VH: QVQLQQPGAELVRPGASVKLSCKASGYTFSNYLMNWVKQRPEQDLDWIGRIDPYDGDIDYNQNFKDKAILTVDKSSSTAYMQLSSLTSEDSAVYYCARGYGTAYGVDYWGQGTSVTVSS
VL: not shown
notes: Mouse hybridoma antibody; mIgG1 was used as isotype control; also called mAb47; m47
- binding result [1]: no binding (tested: 4 µg/ml)
- binding result [2]: no binding

B2: recombinant human IL13Rα2hFc chimera (Fc fusion, UniProt Q14627 27-343, looked up)
chain: DTEIKVNPPQDFEIVDPGYLGYLYLQWQPPLSLDHFKECTVEYELKYRNIGSETWKTIITKNLHYKDGFDLNKGIEAKIHTLLPWQCTNGSEVQSSWAETTYWISPQGIPETKVQDMDCVYYNWQYLLCSWKPGIGVLLDTNYNLFYWYEGLDHALQCVDYIKADGQNIGCRFPYLEASDYKDFYICVNGSSENKPIRSSYFTFQLQNIVKPLPPVYLTFTRESSCEIKLKWSIPLGPIPARCFDYEIEIREDDTTLVTATVENETYTLKTTNETRQLCFVVRSKVNIYCSDDGIWSEWSDKQCWEGEDLSKKTLLR
notes: Bought from R&D Systems; also called rhIL13Rα2hFc; rhIL13Rα2; not shown: human Fc (hFc) of the purchased chimera
- binding result (CD28.OX40.z): binds
- binding result (*41BB.z): binds

Source: patent US20190300616A1 (UNIVERSITY OF CHICAGO, published 2019)
